Laboratory results published in the supplement of paper PMC10724198.
± gives the standard deviation of the averaged measurements.

What follows are sequences tested on Saccharomyces cerevisiae (assay: protein stability index of tFT-peptide fusion (C-terminal peptide) (PSI (0-1 scale)); higher = more stable (slower turnover)). Settings: genetic background: wild type; temperature: 30 C.
Experimental: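 Multiplexed protein stability (MPS) profiling in S. cerevisiae. Random 12-aa peptides (tFT-X12 library) are fused to the C-terminus of a sfGFP-mCherry tandem fluorescent timer, after mCherry and a GGGS linker. Cells are FACS-sorted into 8 mCherry/sfGFP bins and deep-sequenced. The protein stability index (PSI) is the read-weighted bin average, scaled from 0 (unstable) to 1 (stable). Only peptides with >10 reads are reported; cells were grown at 30 °C in SC-His with glucose.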
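Also: PSI is a weighted mean of sequencing reads over stability bins, variants kept only with over 10 reads, mCherry proximal and sfGFP distal, peptide attached via GGGS linker.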

Going from GKNKYIYKKKRH to SGLRLQLLVGHT, the protein stability index falls from 0.792 ± 0.072 to 0.632 ± 0.013.

RYLTLVTNLLCP and SFSFPPHPLKSL are within error of each other in protein stability index: 0.647 ± 0.0024 for the first, 0.723 ± 0.1 for the second.

GPVQWSLLGGSW and PLPPPVPPPPPP are within error of each other in protein stability index: 0.65 ± 0.012 for the first, 0.66 ± 0.017 for the second.

RNAGIQVTGQAF and SPSSRTTNTHPA are within error of each other in protein stability index: 0.704 ± 0.0079 for the first, 0.694 ± 0.11 for the second.

LLPFTLHIPLRP and ECPYFSHTPVAV are within error of each other in protein stability index: 0.6523 ± 0.0022 for the first, 0.644 ± 0.032 for the second.

PPAPPPHPPLPP and VEMVVEFKFGTS are within error of each other in protein stability index: 0.706 ± 0.043 for the first, 0.703 ± 0.18 for the second.

Going from PPAPLLLPLSRP to KEQKIMSKKIEK, the protein stability index falls from 0.735 ± 0.0098 to 0.68978 ± 0.00026.

Going from SVFECKYNTLGR to LPPDSLRPPGPP, the protein stability index rises from 0.671 ± 0.017 to 0.761 ± 0.017.

RSGWSYRDRGPS and QKTKTKKIRKKK are within error of each other in protein stability index: 0.651 ± 0.082 for the first, 0.7014 ± 0.0018 for the second.

PPLPLLSTCAGA and TAYPPAPFRRIN are within error of each other in protein stability index: 0.69 ± 0.15 for the first, 0.492 ± 0.057 for the second.

RSGVRWGGGGGG and GGVRGGAAEGAV are within error of each other in protein stability index: 0.711 ± 0.035 for the first, 0.751 ± 0.076 for the second.

Compared with FFPLSALFARPS, YERKGRQVGGRT is lower in protein stability index: 0.676 ± 0.0073 for the first, 0.592 ± 0.048 for the second.

SRFWLCGKCLWH and PAPPFPPRPSPF are within error of each other in protein stability index: 0.7051 ± 0.0045 for the first, 0.673 ± 0.056 for the second.

VEKQFSVWSFRG and GLGQHPSLMSPP are within error of each other in protein stability index: 0.68 ± 0.031 for the first, 0.706 ± 0.028 for the second.

PFSVQLPDVDCL and SGPGGWNREVGR are within error of each other in protein stability index: 0.715 ± 0.16 for the first, 0.6841 ± 0.0024 for the second.

CPLEYSEVVLVD and LPTASLLPPPPP are within error of each other in protein stability index: 0.6268 ± 0.0022 for the first, 0.626 ± 0.078 for the second.

KTSYDQTLEMGL and PPPLPPPHPSPI are within error of each other in protein stability index: 0.62 ± 0.04 for the first, 0.669 ± 0.019 for the second.

First: SGPHIAFYTSCP
Second: RIINRIDNKIEK
The protein stability index of the first is higher: 0.73 ± 0.053 for the first, 0.672 ± 0.0039 for the second.

First: TLTHKSVRLVVK
Second: FLHVSLSFSCSL
The protein stability index of the first is higher: 0.57119 ± 0.00034 for the first, 0.541 ± 0.0063 for the second.

PPPPSLPPSFPS and SNRSAPWSRFSL are within error of each other in protein stability index: 0.67 ± 0.072 for the first, 0.68 ± 0.038 for the second.

MRKGNGGGPRRR and PPVSLGCPPGRP are within error of each other in protein stability index: 0.728 ± 0.019 for the first, 0.776 ± 0.099 for the second.

GRSHIQPCQDII and VTCADEYYHSRR are within error of each other in protein stability index: 0.75 ± 0.078 for the first, 0.686 ± 0.03 for the second.

NIKEKEIKRQVR and ILSFPYSQYFMS are within error of each other in protein stability index: 0.693 ± 0.051 for the first, 0.7242 ± 0.0052 for the second.

Going from FPFLAPSLVLPT to RVRGGAGRGKRE, the protein stability index rises from 0.569 ± 0.012 to 0.686 ± 0.032.

PPLPPPPPRPPP and FSSSMCLGMRLR are within error of each other in protein stability index: 0.611 ± 0.086 for the first, 0.639 ± 0.096 for the second.

QFVLWPSVLGLG and FSLPPNPQPKLL are within error of each other in protein stability index: 0.648 ± 0.054 for the first, 0.741 ± 0.07 for the second.

RLGRGRRGMRWL and RFVHCRRKVAKR are within error of each other in protein stability index: 0.659 ± 0.025 for the first, 0.667 ± 0.047 for the second.

KTTRTGRHTAPN and QKKTNKKTTRNE are within error of each other in protein stability index: 0.676 ± 0.028 for the first, 0.691 ± 0.013 for the second.

PLCPPPPTSPPP and VCPSPSTPPGLF are within error of each other in protein stability index: 0.666 ± 0.031 for the first, 0.695 ± 0.019 for the second.

Compared with RPRSPRSLPPPP, LFAPPACLPSPA is higher in protein stability index: 0.541 ± 0.043 for the first, 0.64 ± 0.014 for the second.

VLSVETGTSGLF and LSSVFLGICIMS are within error of each other in protein stability index: 0.655 ± 0.01 for the first, 0.543 ± 0.11 for the second.

Compared with PPLIPPSCSPLH, PPPPPPLPPSAA is higher in protein stability index: 0.6864 ± 0.0027 for the first, 0.711 ± 0.0091 for the second.

First: VGGGGRRGKVWG
Second: GNCGLLSLYTLF
The protein stability index of the first is higher: 0.649 ± 0.035 for the first, 0.503 ± 0.023 for the second.

Compared with TIIGLVSANEYL, SCRKGLSPRPPS is higher in protein stability index: 0.582 ± 0.1 for the first, 0.7 ± 0.007 for the second.

LLPSPISRNRAL and PPAPPPADLGPP are within error of each other in protein stability index: 0.696 ± 0.0081 for the first, 0.644 ± 0.093 for the second.

PVSVALASGSLF and CDWQMMKVQERS are within error of each other in protein stability index: 0.744 ± 0.1 for the first, 0.698 ± 0.021 for the second.

RDTAPPPPPALL and VVVSGGGQGFWL are within error of each other in protein stability index: 0.788 ± 0.08 for the first, 0.757 ± 0.064 for the second.

EKEKKKVHRQEE and MFGTVVFGAHRR are within error of each other in protein stability index: 0.712 ± 0.059 for the first, 0.749 ± 0.015 for the second.

KIIRKNILRNEY and GKKEGREAGDRG are within error of each other in protein stability index: 0.658 ± 0.018 for the first, 0.691 ± 0.092 for the second.

SHLPPPSRFSSD and GGIPINVLPGCR are within error of each other in protein stability index: 0.677 ± 0.077 for the first, 0.739 ± 0.15 for the second.

TLENEKKKKRNT and PPDPSTLSTSPS are within error of each other in protein stability index: 0.704 ± 0.084 for the first, 0.689 ± 0.042 for the second.

Compared with PYPSPLPPAPTP, APSPPSVPSPPP is lower in protein stability index: 0.748 ± 0.015 for the first, 0.675 ± 0.0088 for the second.

TPPLARPSPTAL and YWSTNGRCLMVL are within error of each other in protein stability index: 0.534 ± 0.12 for the first, 0.581 ± 0.017 for the second.

Compared with GGGGTGTSGQGR, RIKKTRVVRQKM is lower in protein stability index: 0.718 ± 0.046 for the first, 0.547 ± 0.04 for the second.

Going from PPTFRLHCPPAT to RSTFSGSSTLVY, the protein stability index falls from 0.72 ± 0.02 to 0.568 ± 0.0084.

PPLTRPPTPVPP and QHALSAPRTILP are within error of each other in protein stability index: 0.6626 ± 0.0048 for the first, 0.654 ± 0.03 for the second.

Compared with SQTKRINSEKNN, YGWGVWFIGLGG is higher in protein stability index: 0.654 ± 0.039 for the first, 0.794 ± 0.095 for the second.

GVGGEIGRGGEY and FASLVVSYGAGY are within error of each other in protein stability index: 0.676 ± 0.035 for the first, 0.6712 ± 0.0019 for the second.

VFLLSPLLVPRD and SFMVISSGSSVR are within error of each other in protein stability index: 0.647 ± 0.11 for the first, 0.725 ± 0.023 for the second.
